3 molecules from patent publication US20150218281A1 (Ablynx, published 2015) can be followed below.

Where two headings read alike, the source gives them in different places.

The target of assay [1] is T1, hCD40L (human, UniProt P29965 113-261).
T1 sequence (looked up): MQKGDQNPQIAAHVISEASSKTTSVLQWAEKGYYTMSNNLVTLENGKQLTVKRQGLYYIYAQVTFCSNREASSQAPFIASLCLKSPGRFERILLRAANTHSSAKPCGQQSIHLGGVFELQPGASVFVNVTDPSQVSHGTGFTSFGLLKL
Nature of the assay: competition ELISA on neutravidin captured biotinylated hOX40L. On the procedure:
(§1) The binding of OX40L blocking Nanobodies to other TNF family members was tested in a competition ELISA.
(§2) Detection was done using sTMB (SDT Reagents, Baesweiler, Germany), the reaction was stopped with 1M HCl and absorbance was determined at 450 nm.

The target of assay [2] is T2, hCD30L (human, UniProt P32971 63-234).
T2 sequence (looked up): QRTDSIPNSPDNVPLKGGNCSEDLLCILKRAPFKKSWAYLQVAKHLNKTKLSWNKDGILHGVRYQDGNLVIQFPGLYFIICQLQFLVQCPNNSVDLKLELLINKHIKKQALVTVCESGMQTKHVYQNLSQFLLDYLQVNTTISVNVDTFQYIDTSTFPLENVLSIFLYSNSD
The description is as above. On the procedure: as §1, §2

For assay [3], the target named is T3, human Receptor Activator for Nuclear Factor kappa B Ligand (human, UniProt O14788 143-317, limits assumed).
T3 construct: also called hRANKL; RANKL
T3 sequence (looked up): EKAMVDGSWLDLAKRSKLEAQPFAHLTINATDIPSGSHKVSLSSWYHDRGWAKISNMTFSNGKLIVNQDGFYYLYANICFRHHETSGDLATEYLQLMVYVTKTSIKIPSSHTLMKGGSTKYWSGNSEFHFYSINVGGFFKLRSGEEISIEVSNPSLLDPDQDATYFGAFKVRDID
The assay is described as above. On the procedure:
as §1, §2

Assay [4] addresses T4, hTNF-alpha (human, UniProt P01375 77-233). The assay is described as above. On the procedure:
as §1, §2

The target of assay [5] is T5, human tumor necrosis factor-related apoptosis inducing ligand (human, UniProt P50591 114-281).
T5 construct: also called hTRAIL; TRAIL
The description is as above. On the procedure: as §1, §2

In assay [6] the target is T6, biotinylated hOX40L (R&D Systems, biotinylated in house) (human, UniProt P23510 51-183, biotinylated with Sulfo-NHS-LC-Biotin, sites not stated).
T6 construct: same bought protein as m10, biotinylated; also called biotinylated OX40L
T6 sequence: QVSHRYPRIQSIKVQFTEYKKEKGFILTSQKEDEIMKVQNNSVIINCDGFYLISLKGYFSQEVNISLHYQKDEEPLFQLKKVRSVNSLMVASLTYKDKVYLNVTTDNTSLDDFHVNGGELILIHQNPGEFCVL
Nature of the assay: hOX40L/hOX40 AlphaScreen, sample heated 1 min at Tm+10 C. On the procedure:
(§3) Next, streptavidin donor beads were added and incubated for an additional 1 hour. Fluorescence was measured by reading plates on the EnVision Multilabel Plate Reader using an excitation wavelength of 680 nm and an emission wavelength of 520 nm.
(§4) In the TSA assay, Nanobodies were diluted to a concentration of 0.2 mg/ml and melting temperature (Tm) was determined at different pH by stepwise increase in temperature in presence of Sypro Orange, a dye that binds to […] residues that become exposed upon unfolding of the protein, using the Lightcycler (Roche) for detection. […] In SEC analysis, the Nanobodies were analyzed on a Phenomenex matrix to allow detection of multimers, aggregates or ‘stickyness’.
A general note: Bead proximity is the source of the signal in Alpha formats.

The target of assay [7] is T7, recombinant human OX40L (extracellular domain, R&D Systems) (human, UniProt P23510 51-183).
T7 sequence: T6 sequence
Nature of the assay: cell-based or functional assay.

For assay [8], the target named is T1, hCD40L. Nature of the assay: competition ELISA: fixed concentration of OX40L01E07 pre-incubated with a concentration series of the competitor, then added to biotinylated hOX40L captured on neutravidin; OD450nm. On the procedure: as §1, §2
A general note: In an ELISA, binding on a coated surface is turned into a signal by an enzyme label.

In assay [9] the target is T2, hCD30L. Described as above. The procedure:
as §1, §2

Assay [10] deals with T4, hTNF-alpha. The description is as above. The procedure:
as §1, §2

Assay [11] deals with T5, human tumor necrosis factor-related …. The assay is described as above. On the procedure: as §1, §2
The target in assay [12] is T7, recombinant human OX40L (extracellular …). The experiment in a line: cell-based or functional assay. The source holds these as a separate data set.
Assay [13] has as its target T6, biotinylated hOX40L (R&D Systems, …). Nature of the assay: hOX40L/hOX40 AlphaScreen, assay 2, heated at Tm+10 C.
For assay [14] the target is unchanged. The experiment in a line: hOX40L/hOX40 AlphaScreen, assay 2, native. On the procedure:
as §3, §4

Assay [15] shares this target. The experiment in a line: hOX40L/hOX40 AlphaScreen, assay 3, native. The procedure: as §3, §4
The target is the same in assay [16]. Nature of the assay: hOX40L/hOX40 AlphaScreen, assay 1, native. The procedure: Next, streptavidin donor beads were added and incubated for an additional 1 hour. Fluorescence was measured by reading plates on the EnVision Multilabel Plate Reader using an excitation wavelength of 680 nm and an emission wavelength of 520 nm. […]

T5 sequence (P50591 114-281 limits assumed): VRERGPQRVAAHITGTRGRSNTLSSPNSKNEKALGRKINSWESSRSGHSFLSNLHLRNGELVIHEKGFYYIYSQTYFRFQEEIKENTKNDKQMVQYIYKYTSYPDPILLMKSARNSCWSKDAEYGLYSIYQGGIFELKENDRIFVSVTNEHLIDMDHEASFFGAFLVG
T4 sequence (P01375 77-233 limits assumed): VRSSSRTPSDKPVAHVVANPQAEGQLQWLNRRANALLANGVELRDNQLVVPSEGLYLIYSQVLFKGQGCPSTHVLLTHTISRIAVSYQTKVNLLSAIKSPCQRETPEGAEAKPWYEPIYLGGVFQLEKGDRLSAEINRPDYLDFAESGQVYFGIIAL

B1: OX40L01B11 (VHH)
VHH: EVQLVESGGGLVQAGGSLRLSCVASGRSFSTYIMGWFRQAPGKEREFVATISRSGITTRSADSVKGRFTISRDNAKNTVYLQMNSLKPEDTAVYYCAAGPYVEQTLGLYQTLGPWDYWGQGTQVTVSS
notes: monovalent Nanobody from E. coli; not shown: C-terminal c-myc and His6 tag
The term IC50 denotes the point on the concentration scale where inhibition reaches its midpoint. As to B1, the binding result (with hCD40L [1]; with hCD30L [2]; in [3]; with hTNF-alpha [4]; in assay [5]) was “no binding (tested: starting from 100 fold molar excess)” in each case. In addition, the IC50 in assay [6] amounted to 0.6 nM.

B2: OX40L01E07 (VHH)
VHH: EVQLVESGGGLVQAGGSLRLSCAASGRTFSSIYAKGWFRQAPGKEREFVAAISRSGRSTSYADSVKGRFTISRDNAKNTVYLQMNSLKPEDTAVYYCAAVGGATTVTASEWDYWGLGTQVTVSS
notes: as for B1
Turning to B2, inhibition in [6] was half-maximal at 0.1 nM (IC50). The “IC50, T cell assay with rec. hOX40L” value in assay [7] is 1.48 nM. Besides, the binding result (in the assay with hCD40L [8]; with hCD30L [9]; with hTNF-alpha [10]; in assay [11]) was “no binding” in each case.

B3: OX40L15B07 (VHH)
VHH: EVQLVESGGGLVQAGGSLRLSCAASRSIGRLDRMGWYRHRTGEPRELVATITGGSSINYGDFVKGRFTISIDNAKNTVYLQMNNLKPEDTAVYYCNFNKYVTSRDTWGQGTQVTVSS
notes: as for B1
In the case of B3, the binding result (with hCD40L [1]; in the assay with hCD30L [2]; in assay [3]; with hTNF-alpha [4]; in assay [5]) was “no binding (tested: starting from 100 fold molar excess)” throughout. For the same molecule, the “IC50, T cell assay with rec. hOX40L” value in assay [12] is 10 nM. Moreover, the IC50 in assay [13] was found to be 0.103 nM; in assay [14], 0.066 nM; in [15], 0.077 nM; in assay [16], 0.102 nM.
